Columns and labels:
human CD33-C2-his = target: T1, human CD33-C2-his (human, UniProt P20138 136-260); test: ELISA on coated human CD33-C2-his
T1 construct: expressed in HEK293E; also called hCD33-C2-his; human CD33 protein C2-domain; not shown: His tag
Excerpt: Plates were coated with human CD33-V-his (membrane distal end) and human CD33-C2-his (membrane proximal end), respectively, according to the ELISA method in Example 8. The VHH humanized antibodies were classified based on the membrane distal end and the membrane proximal end, as shown in FIGS. 20A-20J and Table 44, which allowed the classification of the VHH humanized antibodies into the following classes: […]

[1] = target: T2, human CD33-His (extracellular domain Asp 18-His 259) (human, UniProt P20138 18-259); test: competitive ELISA vs coated S006-NB146-20 2ug/mL; soluble 25ug/ml
T2 construct: range 18-259; bought protein; also called hCD33-his; human CD33 protein; not shown: His tag
Experimental: (§1) VHH antibodies and control antibodies with known epitopes were subjected to epitope classification with competitive ELISA. ELISA plates were coated with 2 μg/mL antibodies according to the method in Example 5.1; the human CD33-his protein was subjected to a gradient dilution from 30 μg/mL, and EC80 values (Tables 26-27) were calculated. ELISA plates were coated with 2 μg/mL antibodies; after 25 µg/mL of antibodies to be tested were added, a human CD33-his protein having an EC80 concentration corresponding to each of the antibodies to be tested was then added for incubation for 2 h. The plates were washed 5 times with PBS, then HRP-labeled anti-His antibodies (purchased from GenScript, Cat. No. A00612) were added for incubation for 1 h, and the plates were washed 5 times. A TMB substrate was added at 50 μL/well and incubated at room temperature for 10 min, then a stop solution (1.0 M HCl) was added at 50 μL/well. OD_{450 nm} values were read using an ELISA plate reader (Insight, purchased from PerkinElmer), and the competition rate between the antibodies was calculated according to the OD_{450 nm} values using a formula. The results are shown in FIGS. 12A-12B, the higher the value of the competition rate, the closer the epitopes to which two antibodies bind.

[2] = target: T2, human CD33-His (extracellular domain …); test: competitive ELISA vs coated S006-NB146-46 2ug/mL; soluble 25ug/ml
Experimental: as §1

[3] = target: T2, human CD33-His (extracellular domain …); test: competitive ELISA vs coated S006-NB146-60 2ug/mL; soluble 25ug/ml
Experimental: as §1

[4] = target: T2, human CD33-His (extracellular domain …); test: competitive ELISA vs coated S006-NB147-225 2ug/mL; soluble 25ug/ml
Experimental: as §1

[5] = target: T2, human CD33-His (extracellular domain …); test: competitive ELISA vs coated S006-NB146-150 3ug/mL; soluble 25ug/ml
[6] = target: T2, human CD33-His (extracellular domain …); test: competitive ELISA vs coated S006-NB146-173 3ug/mL; soluble 25ug/ml
human CD33-his protein [7] = target: T3, human CD33-his protein (human, UniProt P20138 18-259); test: competition ELISA, coated human CD33-his, vs Biotin-C33B904 at EC80; antibody 500 nM
T3 construct: range 18-259; bought protein; also called hCD33-his; recombinant human CD33-his; not shown: His tag
Experimental: (§2) ELISA plates were coated with 2 μg/mL human CD33-his protein according to the method in Example 5.1; the Biotin-C331B904 antibody was subjected to a gradient dilution from 15 μg/mL, and EC80 values (0.18 μg/mL) were calculated. ELISA plates were coated with 2 μg/mL human CD33-his protein; starting from 40 μg/mL, the VHH antibodies to be tested were diluted in a 1:2 dilution ratio to obtain seven concentrations and added to the ELISA plates, and then Biotin-C331904 antibodies with the EC80 concentrations were added for incubation for 2 h. The plates were washed 5 times with PBS and then […] (purchased from Sigma, Cat. No. S2438) were added for incubation for 1 h, and the plates were washed 5 times. A TMB substrate was added at 50 μL/well and incubated at room temperature for 10 min, then a stop solution (1.0 M HCl) was added at 50 μL/well. OD_{450 nm} values were read using an ELISA plate reader (Insight, purchased from PerkinElmer). Then, analysis was performed by software (GraphPad Prism8), and data were fitted for curve plotting. The results are shown in FIGS. 13A-13B and Tables 28 and 29.

human CD33-his protein [8] = target: T3, human CD33-his protein; test: competition ELISA, coated human CD33-his, vs Biotin-C33B904 at EC80; antibody 62.50 nM
Experimental: as §2

human CD33-his protein [9] = target: T3, human CD33-his protein; test: competition ELISA, coated human CD33-his, vs Biotin-C33B904 at EC80; antibody 15.63 nM
Experimental: The plate was sealed with a plastic film and incubated at 4° C. overnight, washed twice with PBS the next day, and a blocking solution [PBS+2% (w/w) BSA] was added for blocking at room temperature for 2 h. The blocking solution was discarded, and VHH-Fc antibody or negative control antibody serially diluted from 100 nM was added at 50 μL/well. After incubation at 37° C. for 2 h, the plate was washed 3 times with PBS. A secondary antibody labeled with HRP (horseradish peroxidase) (purchased from Sigma, Cat. No. A0170) was added. After incubation for 1 h at 37° C., the plate was washed 5 times with PBS. A TMB substrate was added at 50 μL/well. After incubation at room temperature for 10 min, a stop solution (1.0 N HCl) was added at 50 μL/well. The OD450 nm values were read on an ELISA plate reader (Multimode Plate Reader, EnSight, purchased from Perkin Elmer). The assay results for the binding of the VHH-Fc to hCD33-his by ELISA are shown in FIGS. 7A and 7B and Tables 11 and 12. […] The IgG control was hIgG1, and the data in the table are OD450 nm values.
ELISA plates were coated with 2 μg/mL human CD33-his protein according to the method in Example 5.1; the Biotin-C331B904 antibody was subjected to a gradient dilution from 15 μg/mL, and EC80 values (0.18 μg/mL) were calculated. […] OD_{450 nm} values were read using an ELISA plate reader (Insight, purchased from PerkinElmer). […]

T2 sequence (P20138 18-259 limits assumed): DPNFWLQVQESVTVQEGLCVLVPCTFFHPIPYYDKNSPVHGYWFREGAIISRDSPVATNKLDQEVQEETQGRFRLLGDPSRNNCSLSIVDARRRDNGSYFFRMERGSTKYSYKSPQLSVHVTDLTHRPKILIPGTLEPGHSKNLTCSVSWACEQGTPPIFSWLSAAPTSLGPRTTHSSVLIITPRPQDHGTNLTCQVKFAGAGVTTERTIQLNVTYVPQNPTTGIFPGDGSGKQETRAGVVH
T3 sequence (P20138 18-259 limits assumed): as above
T1 sequence (P20138 other isoform, or with tags, fused parts or gaps limits assumed): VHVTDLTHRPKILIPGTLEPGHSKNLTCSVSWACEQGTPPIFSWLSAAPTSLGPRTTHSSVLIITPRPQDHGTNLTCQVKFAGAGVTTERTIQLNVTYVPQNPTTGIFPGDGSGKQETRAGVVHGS

B1: C33B904 hIgG1 (antibody, V domains shown)
VH: EVQLVESGGGLVQPGRSLRLSCAASGFTFDDYAMHWVRQAPGKGLEWVSGIGWSGGSIVYADSVKGRFTISRDNAKNSLYLQMNSLRAEDTALYYCAKDSPYGDFFDYWGQGTLVTVSS
VL: DIVMTQSPDSLAVSLGERATINCKSSQTVFYSSNNKNYLAWYQQKPGQPPKLLISWASTRKSGVPDRFSGSGSGTDFTLTVSSLQAEDVAVYYCQHYYSTPYTFGQGTKLEIKR
notes: intact human IgG1; variable regions from US20190382481A1; also called C33B3904; C331B904
EC50 (read off the curve) (human CD33-C2-his): ~0.1 nM | inhibition rate [1]: 100% | inhibition rate [2]: 92% | inhibition rate [3]: 8% | inhibition rate [4]: 96% | inhibition rate [5]: 100% | inhibition rate [6]: 100%

B2: C33B904 (antibody, human IgG1, kappa, V domains shown)
VH: B1 VH
VL: B1 VL
notes: control antibody, intact human IgG1 form; variable regions from US20190382481A1; also called C33B904 hIgG1; C331B904
OD450 (Biotin-C33B904 signal) (human CD33-his protein [7]): 0.08 | OD450 (Biotin-C33B904 signal) (human CD33-his protein [8]): 0.32 | OD450 (Biotin-C33B904 signal) (human CD33-his protein [9]): 0.88
